Molecular target: human PD-L1 on RT4 human bladder cancer cells (human) (UniProt Q9NZQ7)
Assay: cell-based or functional assay

Sequence of human PD-L1 on RT4 human bladder cancer cells (human) (Q9NZQ7 19-290): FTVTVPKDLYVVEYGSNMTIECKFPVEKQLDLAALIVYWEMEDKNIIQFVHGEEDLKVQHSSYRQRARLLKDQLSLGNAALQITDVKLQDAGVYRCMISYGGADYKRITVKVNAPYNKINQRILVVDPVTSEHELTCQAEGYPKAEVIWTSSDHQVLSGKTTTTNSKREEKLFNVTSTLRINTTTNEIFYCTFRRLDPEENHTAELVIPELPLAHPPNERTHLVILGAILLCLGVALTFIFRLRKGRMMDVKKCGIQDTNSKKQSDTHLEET

atezolizumab (antibody)
viability of RT4 cells treated in vitro with rabusertib (Chk1 inhibitor) plus atezolizumab: 100%

— patent US20210332136A1
